Residue numbers refer to the chain shown, from its start. Names and notes keep the numbering of the source.
Assays:
Type in all cases: biochemical
[1] = Oxidative deamination, spectrophotometric assay at 340 nm; conditions: for Oxidative deamination specific activity: maximum specific activity, 1,3-DMBA; for Deamination Activity 40 mM 1,3-DMBA, kcat: 0.1M Glycine pH 10.0, 1 mM NAD+, 25° C.
Description: (§1) Activity of purified proteins was measured using a spectrophotometric assay at 340 nm, corresponding to the cofactor nicotinamide adenine dinucleotide (NADH, ε340=6220 M^−1 cm^−1) (Dawson, et al., Clarendon Press, (1989). For reductive amination, reactions took place in 500 mM NH4Cl/NH4OH at pH 9.6, with 200 μM NADH and 20 mM of the ketone substrate, unless otherwise specified. […] All reactions were performed at 25° C. unless otherwise specified. Enzyme was added in 10 μL aliquots in dilute concentrations. Enzyme concentrations varied upon activity levels with the substrate present, but were dilute enough to ensure linear conversion kinetics over the analytical time period (10 min to 30 min). Specific activities were then calculated from the stoichiometric conversion of cofactor as determine by the change in absorbance at 340 nm over time.

[2] = Reductive amination, spectrophotometric assay at 340 nm; conditions: for Reductive amination specific activity: maximum specific activity, nonlinear fit; for Amination Activity 40 mM MIBK, kcat: 500 mM NH4Cl/NH4OH pH 9.6, 200 μM NADH, 25° C.
Description: (§2) Activity of purified proteins was measured using a spectrophotometric assay at 340 nm, corresponding to the cofactor nicotinamide adenine dinucleotide (NADH, ε340=6220 M^−1 cm^−1) (Dawson, et al., Clarendon Press, (1989). For reductive amination, reactions took place in 500 mM NH4Cl/NH4OH at pH 9.6, with 200 μM NADH and 20 mM of the ketone substrate, unless otherwise specified. For oxidative deamination, reactions took place in 0.1 M NaHCO3/Na2CO3 buffer at pH 10.0, with 1 mM NAD+ with 10 mM of the amine substrate of interest. All reactions were performed at 25° C. unless otherwise specified. Enzyme was added in 10 μL aliquots in dilute concentrations. Enzyme concentrations varied upon activity levels with the substrate present, but were dilute enough to ensure linear conversion kinetics over the analytical time period (10 min to 30 min). Specific activities were then calculated from the stoichiometric conversion of cofactor as determine by the change in absorbance at 340 nm over time.

[3] = Oxidative deamination, spectrophotometric assay at 340 nm; conditions: 20 mM substrate
Description: as §1
The enantioselectivity was initially estimated by measuring the deamination activity toward individual enantiomers of methylbenzylamine (MBA). […] A preference towards (R)-MBA over the corresponding (S)-enantiomer was evident in the discrepancies between the deamination activities of 0.586 U mg^−1 and 0.002 U mg^−1, respectively. These preliminary results were corroborated through direct measurement of the enantioselectivity of the MIBK amination in producing chiral 1,3-DMBA.

[4] = Reductive amination of PFPA, spectrophotometric assay at 340 nm; conditions: 500 mM NH4Cl/NH4OH pH 9.6, 200 μM NADH; for kcat, amination of PFPA: apparent; for Km: read-out: KM, amination of PFPA
Description: as §2
The activity of the purified protein was evaluated using a spectrophotometric assay at 340 nm as described in Section 3.2.3 at 25° C. in various concentrations of NH4Cl/NH4OH buffer pH 9.6.
Active variants were identified by the rate of change in absorbance at 340 nm, corresponding to the fastest activity. […] Some variants consumed the cofactor too quickly (<5 min) to be observed over multiple time points, and gave low absorbance in the initial time point. These variants were included for further characterization. The successful variants were sequenced (MWG Operon), and each unique sequence was expressed in pET28a/BL21 for histag purification and determination of kcat and KM values with PFPA.

[5] = 1,3-DMBA substrate, read-out: KM (oxidative deamination)
[6] = purified LeuDH library 10/11 hits
[7] = purified LeuDH library 10/11 hits, read-out: Deamination of 1,3-DMBA KM
[8] = MIBK substrate, read-out: KM (reductive amination)
[9] = purified LeuDH library 10/11 hits, read-out: Amination of MIBK KM

B1: K67M: LeuDH single variant, library 1 (protein, listed as Bacillus stearothermophilus)
chain: ELFQYMEKYDYEQVLFCQDKESGLKAIIVIHDTTLGPALGGTRMWMYNSEEEALEDALRLARGMTYMNAAAGLNLGGGKTVIIGDPRKDKNEAMFRAFGRFIQGLNGRYITAEDVGTTVADMDIIYQETDYVTGISPEFGSSGNPSPATAYGVYRGMKAAAKEAFGSDSLEGKVVAVQGVGNVAYHLCRHLHEEGAKLIVTDINKEAVARAVEEFGAKAVDPNDIYGVECDIFAPCALGGIINDQTIPQLKAKVIAGSADNQLKEPRHGDMIHEMGIVYAPDYVINAGGVINVADELYGYNRERAMKKIEQIYDNIEKVFAIAKRDNIPTYVAADRMAEERIETMRKARSQFLQNGHHILSRRRAR
activity in the oxidative deamination of racemic 1,3-DMBA [1]: 3.4 mU mg^−1
Oxidative deamination specific activity [1]: 0.0034 U mg^−1 protein
activity for reductive amination ([2]; MIBK): 0.2 mU mg^−1
Reductive amination specific activity ([2]; MIBK): 0.0002 U mg^−1 protein

B2: K67M/E113V/N261C/V290C: LeuDH-AmDH variant, SEQ ID NO:9, library 10 (protein)
chain: B1 chain with E113V, N261C, V290C
Km [1, 5]: 14.8 mM
Oxidative deamination specific activity [1]: 1.76 U mg^−1 protein
Deamination of 1,3-DMBA Vmax [1, 6]: 1.76 ± 0.20
Km [1, 7]: 14.8 ± 6.1 mM
Km [2, 8]: 21.6 mM
Reductive amination specific activity ([2]; MIBK): 0.236 U mg^−1 protein
Amination of MIBK Vmax [2, 6]: 0.236 ± 0.04
Km [2, 9]: 21.6 ± 11.5 mM

B3: K67M/E113V/N261V/V290C: LeuDH-AmDH variant, SEQ ID NO:8, library 10 (protein)
chain: B1 chain with E113V, N261V, V290C
Specific activity, (R/S)-MBA ([1]; 40 mM racemic, 20 mM of each enantiomer): 484.0 mU mg^−1 protein
Km [1, 5]: 30.9 mM
Oxidative deamination specific activity [1]: 2.81 U mg^−1 protein
Deamination of 1,3-DMBA Vmax [1, 6]: 2.894 ± 0.44
Km [1, 7]: 33.1 ± 13 mM
Specific activity, (R)-MBA [3]: 476.5 mU mg^−1 protein
Specific activity, (S)-MBA [3]: 5.0 mU mg^−1 protein
Specific activity, acetophenone ([2]; 20 mM substrate): 3.5 mU mg^−1 protein
Specific activity, cyclohexanone ([2]; 20 mM substrate): 18.8 mU mg^−1 protein
Specific activity, ethyl pyruvate ([2]; 20 mM substrate): 19.8 mU mg^−1 protein
Specific activity, ethyl-3-oxohexanoate ([2]; 20 mM substrate): 6.4 mU mg^−1 protein
Specific activity, methyl acetoacetate ([2]; 20 mM substrate): 4.5 mU mg^−1 protein
Km [2, 8]: 10.3 mM
Reductive amination specific activity ([2]; MIBK): 0.089 U mg^−1 protein
Amination of MIBK Vmax [2, 6]: 0.084 ± 0.01
Km [2, 9]: 21 ± 8.5 mM

B4: K67M, E113V: LeuDH-AmDH variant, SEQ ID NO:5 (protein)
chain: B1 chain with E113V
Km [1, 5]: 48 mM
Oxidative deamination specific activity [1]: 0.65 U mg^−1 protein
Reductive amination specific activity ([2]; MIBK): 0.015 U mg^−1 protein

B5: K77W N276E: PheDH-AmDH double variant, SEQ ID NO:3; PheDH library 1 hit 7F10 (protein)
chain: SLVEKTSIIKDFTLFEKMSEHEQVVFCNDPATGLRAIIAIHDTTLGPALGGCRMQPYNSVEEALEDALRLSKGMTYWCAASDVDFGGGKAVIIGDPQKDKSPELFRAFGQFVDSLGGRFYTGTDMGTNMEDFIHAMKETNCIVGVPEAYGGGGDSSIPTAMGVLYGIKATNKMLFGKDDLGGVTYAIQGLGKVGYKVAEGLLEEGAHLFVTDINEQTLEAIQEKAKTTSGSVTVVASDEIYSQEADVFVPCAFGGVVNDETMKQFKVKAIAGSANEQLLTEDHGRHLADKGILYAPDYIVNSGGLIQVADELYEVNKERVLAKTKHIYDAILEVYQQAELDQITTMEAANRMCEQRMAARGRRNSFFTSSVKPKWDIRN
kcat, amination of PFPA [4]: 2.63 s⁻¹
kcat, amination of PFPA ([4]; listed as 7F10): 2.631 ± 0.159 s⁻¹
Km ([4]; listed as 7F10): 5.3 ± 0.6 mM
Km [4]: 5.32 mM

B6: Asn276Val: B. badius PheDH single variant (protein, listed as Bacillus badius)
chain: B5 chain with W77K, E276V
Deamination Activity 40 mM 1,3-DMBA, kcat [1]: 0.0016 ± 0.000 s⁻¹
Amination Activity 40 mM MIBK, kcat [2]: n.m.

B7: Lys77Met: B. badius PheDH single variant (protein, listed as Bacillus badius)
chain: B5 chain with W77M, E276N
Deamination Activity 40 mM 1,3-DMBA, kcat [1]: 0.0033 ± 0.000 s⁻¹
Amination Activity 40 mM MIBK, kcat [2]: 0.0009 ± 0.000 s⁻¹

Source: US8835136B2, “Engineered amine dehydrogenases and methods of use thereof” (Georgia Tech Research Corporation, priority 2012, dated 2014)
